# Data reported in patent publication US7083932 (EUROSCREEN S A, dated 2006).
# Target: orphan receptor ORL1 (Opioid Receptor-Like 1) stably expressed in recombinant CHO(ORL1+) cells
# Assay: cell-based or functional assay
"inhibition of forskolin-induced accumulation of cAMP in recombinant CHO(ORL1+) cells, IC50 [nM]","inhibition of forskolin-induced accumulation of cAMP in CHO cells expressing the receptor, IC50 [nM]",Binder
0.9,,FGGFTGARKSARKLANQ
,1,YGGFTGARKSARKLANQ [1Tyr analogue of the synthetic heptadecapeptide]
